We go through 37 sequences from the supplement of paper PMC7877785.

This series in a line: self-splicing fitness, log relative to wild type (ln ratio); higher = more splicing; Tetrahymena group I intron in knt gene, E. coli kanamycin selection, DiMSum; sequences stand for … in CUCUCU…GGAGGGAAAAGUUAUCAGGCAUGCACCUGGUAGCUAGUCUUUAAACCAAUAGAUUGCAUCGGUUUAAAAGGCAAGACCGUCAAAUUGCGGGAAAGGGGUCAACAGCCGUUCAGUACCAAGUCUCAGGGGAAACUUUGAGAUGGCCUUGCAAAGGGUAUGGUAAUAAGCUGACGGACAUGGUCCUAACCACGCAGCCAAGUCCUAAGUCAACAGAUCUUCUGUUGAUAUGGAUGCAGUUCACAGACUAAAUGUCGGUCGGGGAAGAUGUAUUCUUCUCAUAAGAUAUAGUCGGACCUCUCCUUAAUGGGAGCUAGCGGAUGAAGUGAUGCAACACUGGAGCCGCUGGGAACUAAUUUGUAUGCGAAAGUAUAUUGAUUAGUUUUGGAGUACUCGUGGUCG
An outline of the steps:
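Colonies from six replicate transformations of E. coli BL21(DE3) were pooled and amplicon-sequenced on an Illumina HiSeq 2500. The library placed an intron with all eight P1ex-region nucleotides randomised inside the knt kanamycin-resistance gene on pET-22b(+), and cells grew overnight at 37°C or 30°C on LB agar with or without 25 μg/mL kanamycin (plus 100 μg/mL carbenicillin, 50 μM IPTG, 0.2% rhamnose). Fitness is the DiMSum error-weighted combination of wild-type-normalised replicate fold changes, kanamycin versus none.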

± gives the uncertainty stated by the source.

Regarding GUAAAGCAAUAUUACGCCGC, the “self-splicing fitness (ln)” value was -2.48 ± 0.3 (30 °C) and -1.92 ± 0.35 (37 °C). For the sequence GUAAAGCAAUAUUACGCCUU, the “self-splicing fitness (ln)” value is, setting by setting: (30 °C) -1.57 ± 0.11; (37 °C) 0.238 ± 0.15. For GUAAAGCAAUAUUACGCGUC the same measures were -1.05 ± 0.12 and -1.3 ± 0.14. For GUAAAGCAAUAUUACGCUAA the same measures were -1.65 ± 0.087 and -0.135 ± 0.11.

Take GUAAAGCAAUAUUACGCUCA: the “self-splicing fitness (ln)” value is -0.138 ± 0.095 (30 °C) and 0.776 ± 0.14 (37 °C). On the same counts, the results for GUAAAGCAAUAUUACGGAUU are -0.675 ± 0.079 and -0.288 ± 0.1. On the same counts, the results for GUAAAGCAAUAUUACGGUUG are -2.91 ± 0.21 and -1.41 ± 0.2. On the same counts, the results for GUAAAGCAAUAUUACGUCAG are -3.53 ± 0.32 and -1.83 ± 0.19.

For GUAAAGCAAUAUUACGUCUA, the “self-splicing fitness (ln)” value is 0.446 ± 0.11 (30 °C) and 0.0339 ± 0.13 (37 °C). On the same counts, the results for GUACAGCAAUAUUACGACGG are -3.75 ± 0.22 and -2.89 ± 0.21. For GUACAGCAAUAUUACGAGCA the same measures were -1.59 ± 0.13 and -1.12 ± 0.13.

In the case of GUACAGCAAUAUUACGAUAA, the “self-splicing fitness (ln)” value reads like this: (30 °C) -1.95 ± 0.12; (37 °C) -0.911 ± 0.13. For GUACAGCAAUAUUACGCAAC the same measures were -2.08 ± 0.18 and -0.557 ± 0.17. On the same counts, the results for GUACAGCAAUAUUACGCAAG are -2.59 ± 0.16 and -2.08 ± 0.17. On the same counts, the results for GUACAGCAAUAUUACGCAUU are -2.76 ± 0.14 and -0.835 ± 0.087. For the sequence GUACAGCAAUAUUACGCCCA, the “self-splicing fitness (ln)” value by setting is: (30 °C) -1.14 ± 0.4; (37 °C) 0.32 ± 0.36. In the case of GUACAGCAAUAUUACGCCGA, the “self-splicing fitness (ln)” value (37 °C) was -1.96 ± 0.41.

GUACAGCAAUAUUACGCGAA: the “self-splicing fitness (ln)” value (30 °C) was -2.24 ± 0.13 and the “self-splicing fitness (ln)” value (37 °C) is -2.22 ± 0.14. On the same counts, the results for GUACAGCAAUAUUACGCGAC are -4.09 ± 0.28 and -1.87 ± 0.16. On the same counts, the results for GUACAGCAAUAUUACGCGAU are -4.98 ± 0.46 and -2.71 ± 0.26. For GUACAGCAAUAUUACGCGCU the same measures were -1.36 ± 0.13 and -0.689 ± 0.19. In the case of GUACAGCAAUAUUACGCGGG, the “self-splicing fitness (ln)” value reads like this: (30 °C) -1.5 ± 0.092; (37 °C) -2.71 ± 0.15.

As for GUACAGCAAUAUUACGCUCG, the “self-splicing fitness (ln)” value (30 °C) is -0.881 ± 0.13 and the “self-splicing fitness (ln)” value (37 °C) was -0.344 ± 0.14. For GUACAGCAAUAUUACGCUGC the same measures were -4.33 ± 0.26 and -2.74 ± 0.3. As to GUACAGCAAUAUUACGGAAG, the “self-splicing fitness (ln)” value was -1.45 ± 0.11 (30 °C) and -3.01 ± 0.25 (37 °C). As for GUACAGCAAUAUUACGGACC, the “self-splicing fitness (ln)” value is -2.76 ± 0.13 (30 °C) and -2.1 ± 0.2 (37 °C). On the same counts, the results for GUACAGCAAUAUUACGGGGU are -3.29 ± 0.16 and -2.34 ± 0.11. For GUACAGCAAUAUUACGGUAA the same measures were -0.865 ± 0.13 and -0.97 ± 0.12. On the same counts, the results for GUACAGCAAUAUUACGGUUC are -1.29 ± 0.074 and -0.703 ± 0.08. As for GUACAGCAAUAUUACGUCUU, the “self-splicing fitness (ln)” value runs as follows: (30 °C) -0.533 ± 0.079; (37 °C) 0.628 ± 0.092. On the same counts, the results for GUAGAGCAAUAUUACGAACA are -2.46 ± 0.17 and -0.783 ± 0.16. On the same counts, the results for GUAGAGCAAUAUUACGACGU are -0.438 ± 0.16 and 0.352 ± 0.16. For GUAGAGCAAUAUUACGACUG the same measures were -1.22 ± 0.15 and -1.12 ± 0.24. In the case of GUAGAGCAAUAUUACGAGCG, the “self-splicing fitness (ln)” value by setting is: (30 °C) -0.682 ± 0.17; (37 °C) -0.875 ± 0.21.

As for GUAGAGCAAUAUUACGAUAG, the “self-splicing fitness (ln)” value is -2.06 ± 0.15 (30 °C) and -1.42 ± 0.14 (37 °C). For GUAGAGCAAUAUUACGAUCU, the “self-splicing fitness (ln)” value is, setting by setting: (30 °C) -0.617 ± 0.12; (37 °C) -0.114 ± 0.15. On the same counts, the results for GUAGAGCAAUAUUACGAUGC are -0.0786 ± 0.15 and -0.434 ± 0.13.
